Source: patent US12559863B2, “Macrocyclic modulators of disease associated protein misfolding and aggregation” (RESQ BIOTECH, priority 2017, dated 2026)

How the values were obtained:
SOD1(A4V)-GFP = molecular target: T1, SOD1(A4V)-GFP (Homo sapiens, UniProt P00441, A5V); assay: Fluorescence of E. coli cells co-expressing SOD1(A4V)-GFP and cyclic peptide; type: cell-based; conditions: co-expression of cyclic peptide; compared to random cyclic peptides from initial library
T1 construct: polyHis; expressed in transfected cells; host or cells: E. coli Origami 2(DE3) (BL21(DE3) for the FACS screen)
From the text: Electrocompetent E. coli BL21(DE3) cells (Novagen, USA) carrying either the expression vector pETSOD1(A4V)-GFP, which produces SOD1(A4V)-GFP under control of the strong bacteriophage T7 promoter, or pETAβ42-GFP, which produces Aβ42-GFP under control of the T7 promoter, were co-transformed with the combined pSICLOPPS-NuX1X2X3-X5 vector library. Approximately 10^8 transformants carrying both the vector library and either pETSOD1(A4V)-GFP or pETAβ42-GFP vectors were harvested, pooled together, and grown in Luria-Bertani (LB) liquid medium containing either 0.005% (pETSOD1(A4F)-GFP) or 0.002% (pETAβ42-GFP) L-arabinose—the inducer of cyclic peptide production—at 37° C. with shaking. When the optical density at 600 nm (OD600) of the bacterial culture was about 0.5, 0.01 (pETSOD1(A4F)-GFP) or 0.1 (pETAβ42-GFP) mM isopropyl-β-D-thiogalactoside (IPTG) was added to the medium to induce overexpression of the reporter. […] The isolated cells were re-grown and screened for additional rounds in an identical manner until the desired enrichment in high-fluorescence clones was achieved.
For SOD1 or SOD1-GFP production, BL21(DE3) (Novagen, USA) or Origami 2(DE3) cells (Novagen, USA) were transformed with the corresponding SOD1- or SOD1-GFP-encoding vector, either with the appropriate pSICLOPPS vector or alone. […]
Bacterial cells corresponding to 1 mL culture with OD600=1 were harvested by centrifugation and re-suspended in 100 μL phosphate-buffered saline (PBS), transferred to a 96-well FLUOTRAC 200 plate (Greiner Bio One International, Austria), and their fluorescence was measured using a TECAN Safire II-Basic plate reader (Tecan, Austria). Excitation was set at 488 nm and emission was measured at 510 nm.

Aβ42-GFP = molecular target: T2, Aβ42-GFP (Homo sapiens, UniProt P05067); assay: High-throughput sequencing of pSICLOPPS vectors isolated after bacterial sorting for enhanced Aβ42-GFP fluorescence; conditions: for Reads/Total TXXXR reads (%): relative to total TXXXR reads
T2 construct: a chimeric fusion of the human Aβ(1-42) peptide (Aβ42) with GFP; expressed in transfected cells; host or cells: E. coli BL21(DE3)
Summary of the method: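 Peptide inserts recovered from repeatedly sorted high-GFP clones were sequenced on Ion Torrent, excluding stop-codon-containing reads. Sorting used BL21(DE3) cells carrying pETAβ42-GFP plus the tetra-, penta- and hexapeptide pSICLOPPS library. Peptide production was induced with 0.002% L-arabinose and the reporter with 0.1 mM IPTG at OD600 ~0.5, at 37° C.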

[1] = after the second round of bacterial sorting
[2] = after the second round of bacterial sorting, relative to total pentapeptide reads
[3] = after the second round of bacterial sorting, relative to total peptide reads
[4] = high-throughput sequencing of isolated pSICLOPPS-NuX1X2X3-X5 vectors after the second round of bacterial sorting for enhanced Aβ42-GFP fluorescence, selected cyclo-TXXXR pentapeptides
[5] = Table 4, hexapeptides, after second round of sorting
[6] = after the second round of bacterial sorting for enhanced Aβ42-GFP fluorescence
[7] = after the second round of bacterial sorting for enhanced Aβ42-GFP fluorescence, relative to total pentapeptide reads
[8] = after the second round of bacterial sorting for enhanced Aβ42-GFP fluorescence, relative to total peptide reads
[9] = pSICLOPPS-NuX1X2X3-X5 vectors after the second round of bacterial sorting for enhanced Aβ42-GFP fluorescence

T1 sequence (P00441 whole entry A5V): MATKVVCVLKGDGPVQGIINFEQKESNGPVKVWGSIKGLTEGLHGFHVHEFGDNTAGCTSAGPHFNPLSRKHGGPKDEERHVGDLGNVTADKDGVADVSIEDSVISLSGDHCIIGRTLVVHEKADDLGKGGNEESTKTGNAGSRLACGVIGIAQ

Substance | Reads/Total TXXXR reads (%) (Aβ42-GFP; [1]) | Reads/Total pentapeptide reads (%) (Aβ42-GFP; [2]) | Reads/Total peptide reads (%) (Aβ42-GFP; [3]) | Number of reads (Aβ42-GFP; [4]) | also measured
cyclo-TASFW (cyclic) |  |  |  |  | SOD1(A4V)-GFP fluorescence of E. coli cells (SOD1(A4V)-GFP): highest levels of cellular SOD1(A4V)-GFP fluorescence
AβC5-66 (TTHWR; cyclic pentapeptide) | 0.752 | 0.352 | 0.316 | 14,304 | 
AβC5-105 (TVRWR; cyclic) | 0.287 | 0.134 | 0.120 | 5,450 | 
AβC5-7 (TTLHR; cyclic pentapeptide) | 7.046 | 3.301 | 2.958 | 134,018 | 
AβC5-158 (TTGAR; cyclic) | 0.062 | 0.029 | 0.026 | 1,172 | 
TIFWFD [AβC6-50] |  |  |  |  | Reads/Total hexapeptide reads (%) (Aβ42-GFP; Table 4): 0.050%; Reads/Total peptide reads (%) (Aβ42-GFP; Table 4): 0.005%; Number of reads (Aβ42-GFP; [5]): 227
AβC5-117 (TTRCR; cyclic) | 0.223 | 0.104 | 0.094 | 4,237 | 
AβC5-448 (TAYAR; cyclic pentapeptide) |  |  |  |  | Reads/Total TXXXR reads (%) (Aβ42-GFP; [6]): 0.003%; Reads/Total pentapeptide reads (%) (Aβ42-GFP; [7]): 0.001%; Reads/Total peptide reads (%) (Aβ42-GFP; [8]): 0.001%; Number of reads (Aβ42-GFP; [9]): 58
AβC5-41 (TGWAR; head-to-tail cyclic) | 1.145 | 0.537 | 0.481 | 21,784 | 
AβC5-415 (TTTCR; cyclic pentapeptide) |  |  |  |  | Reads/Total TXXXR reads (%) (Aβ42-GFP; [6]): 0.004%; Reads/Total pentapeptide reads (%) (Aβ42-GFP; [7]): 0.002%; Reads/Total peptide reads (%) (Aβ42-GFP; [8]): 0.002%; Number of reads (Aβ42-GFP; [9]): 74
AβC5-298 (TTRGR; cyclic) | 0.011 | 0.005 | 0.004 | 201 | 
AβC5-260 (TTWTR; cyclic) | 0.016 | 0.007 | 0.007 | 295 | 
AβC5-395 (TTQHR; head-to-tail cyclic) |  |  |  |  | Reads/Total TXXXR reads (%) (Aβ42-GFP; [6]): 0.004%; Reads/Total pentapeptide reads (%) (Aβ42-GFP; [7]): 0.002%; Reads/Total peptide reads (%) (Aβ42-GFP; [8]): 0.002%; Number of reads (Aβ42-GFP; [9]): 85
TLSVFD [AβC6-57] |  |  |  |  | Reads/Total hexapeptide reads (%) (Aβ42-GFP; Table 4): 0.039%; Reads/Total peptide reads (%) (Aβ42-GFP; Table 4): 0.004%; Number of reads (Aβ42-GFP; [5]): 176
TPAWFD [AβC6-2] |  |  |  |  | Reads/Total hexapeptide reads (%) (Aβ42-GFP; Table 4): 24.555%; Reads/Total peptide reads (%) (Aβ42-GFP; Table 4): 2.453%; Number of reads (Aβ42-GFP; [5]): 111,132
AβC5-244 (TTRVR; cyclic) | 0.019 | 0.009 | 0.008 | 366 | 
cyclo-TFSMW (cyclic) |  |  |  |  | SOD1(A4V)-GFP fluorescence of E. coli cells (SOD1(A4V)-GFP): highest levels of cellular SOD1(A4V)-GFP fluorescence
cyclo-TLWR (cyclic) [AβC4B-80] |  |  |  |  | Normalized read number (%) (Aβ42-GFP; Table 3, cyclo-TXXR tetrapeptides): 0.2568%
AβC5-355 (TATVR; head-to-tail cyclic) | 0.006 | 0.003 | 0.003 | 115 | 
AβC5-27 (TTSAR; cyclic) | 1.482 | 0.694 | 0.622 | 28,188 | 
AβC5-392 (TTCDR; head-to-tail cyclic) |  |  |  |  | Reads/Total TXXXR reads (%) (Aβ42-GFP; [6]): 0.005%; Reads/Total pentapeptide reads (%) (Aβ42-GFP; [7]): 0.002%; Reads/Total peptide reads (%) (Aβ42-GFP; [8]): 0.002%; Number of reads (Aβ42-GFP; [9]): 87
cyclo-SHSPT [AβC5-387] |  |  |  |  | Reads/Total SASPT-like reads (%) (Aβ42-GFP; Table 2): 0.337%; Reads/Total pentapeptide reads (%) (Aβ42-GFP; Table 2): 0.002%; Reads/Total peptide reads (%) (Aβ42-GFP; Table 2): 0.002%; Number of reads (Aβ42-GFP; Table 2, after second round of sorting): 89
